Test results as given in patent publication US20190233493A1 (Sanofi, published 2019).
Each block holds one binder with its values, some of them ahead of it. *1 amine or outer side, *2 acyl side, *3 side chain or, on linkers, in order; H or OH if unused. Primed or numbered codes have the meaning given here. Side-chain parts run from the residue outwards. [ ]: non-standard residue; d: D form. The star is where a group is joined. PEG2DGA = 2-[2-[3-[2-[2-(3-aminopropoxy)ethoxy]ethoxy]propylamino-2-oxo-ethoxy]acetyl; TTDS(3) = O=C(CCC(=O)[*:2])NCCCOCCOCCOCCCN[*:1]; Trp(5-OH) = N[C@@H](Cc1c[nH]c2ccc(O)cc12)C(=O)O; Arg(Me2s) = CN=C(NC)NCCC[C@H](N)C(=O)O; γGlu = O=C(O)[C@H](CCC(=O)[*:2])N[*:1]; Arg(Me) = CNC(=N)NCCC[C@H](N)C(=O)O; Stearoyl = CCCCCCCCCCCCCCCCCC(=O)*; Palmitoyl = CCCCCCCCCCCCCCCC(=O)*; αMeF = C[C@](N)(Cc1ccccc1)C(=O)O; αMeK = C[C@](N)(CCCCN)C(=O)O; Lauroyl = CCCCCCCCCCCC(=O)*; Nle = CCCC[C@H](N)C(=O)O; PEG2′ = PEG2 spacer unit; PEG2″ = not defined here; Aib = CC(C)(N)C(=O)O

Target: T1, RXFP1 receptor (UniProt Q9HBX9 1-757, limits assumed)
T1 sequence (looked up): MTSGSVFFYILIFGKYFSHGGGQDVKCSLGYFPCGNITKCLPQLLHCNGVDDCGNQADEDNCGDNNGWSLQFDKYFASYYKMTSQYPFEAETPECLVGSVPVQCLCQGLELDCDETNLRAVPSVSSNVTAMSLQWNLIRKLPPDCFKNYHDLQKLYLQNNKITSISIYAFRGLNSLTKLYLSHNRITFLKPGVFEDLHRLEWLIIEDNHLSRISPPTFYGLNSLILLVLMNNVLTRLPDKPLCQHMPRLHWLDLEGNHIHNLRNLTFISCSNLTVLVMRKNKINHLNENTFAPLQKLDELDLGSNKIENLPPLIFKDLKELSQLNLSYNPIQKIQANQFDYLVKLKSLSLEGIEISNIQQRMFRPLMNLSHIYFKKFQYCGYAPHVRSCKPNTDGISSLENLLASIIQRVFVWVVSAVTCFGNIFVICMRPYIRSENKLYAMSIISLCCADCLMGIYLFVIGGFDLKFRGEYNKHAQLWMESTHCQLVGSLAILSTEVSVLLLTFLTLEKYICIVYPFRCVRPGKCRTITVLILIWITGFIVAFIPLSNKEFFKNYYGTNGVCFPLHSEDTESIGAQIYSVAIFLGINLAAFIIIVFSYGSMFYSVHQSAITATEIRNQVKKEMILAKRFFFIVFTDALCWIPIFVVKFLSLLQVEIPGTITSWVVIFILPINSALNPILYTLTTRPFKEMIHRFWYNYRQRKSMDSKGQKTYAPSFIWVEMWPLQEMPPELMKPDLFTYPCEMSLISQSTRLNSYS
Experiment: cell-based or functional assay

EC50 (nM), OVCAR 5 cells (cAMP): 0.02 nM | EMax, OVCAR 5 cells (cAMP): 87%
B1: peptide of SEQ ID NO: 16 (peptide)
peptide: Ac-LEGREKVRAK(Ac)I[Aib][Aib]EG[Nle]STWS[αMeK]RKK(Ac)[PEG2″][PEG2″][PEG2″]K([γGlu-γGlu-γGlu-γGlu-Stearoyl])-NH2

EC50 (nM), OVCAR 5 cells (cAMP): 0.06 nM | EMax, OVCAR 5 cells (cAMP): 90%
B2: peptide of SEQ ID NO: 156 (peptide)
peptide: Ac-LEGREKVRAK(Ac)I[Aib][Aib]EG[Nle]STWS[Aib]AAK(Ac)K([PEG2DGA-PEG2DGA-γGlu-γGlu-γGlu-Stearoyl])-NH2

EC50 (nM), OVCAR 5 cells (cAMP): 0.02 nM | EMax, OVCAR 5 cells (cAMP): 89%
B3: peptide of SEQ ID NO: 146 (peptide)
peptide: Ac-LEGREKVRAK(Ac)I[Aib][Aib]EG[Nle]STFS[αMeK]RKK(Ac)[TTDS(3)][TTDS(3)][γGlu][γGlu][γGlu]K([γGlu-Palmitoyl])-NH2
SMILES: CCCCCCCCCCCCCCCC(=O)N[C@@H](CCC(=O)NCCCC[C@H](NC(=O)CC[C@H](NC(=O)CC[C@H](NC(=O)CC[C@H](NC(=O)CCC(=O)NCCCOCCOCCOCCCNC(=O)CCC(=O)NCCCOCCOCCOCCCNC(=O)[C@H](CCCCNC(C)=O)NC(=O)[C@H](CCCCN)NC(=O)[C@H](CCCNC(=N)N)NC(=O)[C@](C)(CCCCN)NC(=O)[C@H](CO)NC(=O)[C@H](Cc1ccccc1)NC(=O)[C@@H](NC(=O)[C@H](CO)NC(=O)[C@H](CCCC)NC(=O)CNC(=O)[C@H](CCC(=O)O)NC(=O)C(C)(C)NC(=O)C(C)(C)NC(=O)[C@@H](NC(=O)[C@H](CCCCNC(C)=O)NC(=O)[C@H](C)NC(=O)[C@H](CCCNC(=N)N)NC(=O)[C@@H](NC(=O)[C@H](CCCCN)NC(=O)[C@H](CCC(=O)O)NC(=O)[C@H](CCCNC(=N)N)NC(=O)CNC(=O)[C@H](CCC(=O)O)NC(=O)[C@H](CC(C)C)NC(C)=O)C(C)C)[C@@H](C)CC)[C@@H](C)O)C(=O)O)C(=O)O)C(=O)O)C(N)=O)C(=O)O

EC50 (nM), OVCAR 5 cells (cAMP): 0.4 nM | EMax, OVCAR 5 cells (cAMP): 92%
B4: peptide of SEQ ID NO: 154 (peptide)
peptide: Ac-LEGREKVRAK(Ac)I[Aib][Aib]EG[Nle]STFS[αMeK]RAK(Ac)K([PEG2′-PEG2′-PEG2′-PEG2′-γGlu-γGlu-γGlu-γGlu-Palmitoyl])-NH2

EC50 (nM), OVCAR 5 cells (cAMP): 2.14 nM | EMax, OVCAR 5 cells (cAMP): 86%
B5: peptide of SEQ ID NO: 147 (peptide)
peptide: Ac-LEGREKVRAK(Ac)I[Aib][Aib]EG[Nle]STFS[Aib]RKK(Ac)K([PEG2′-PEG2′-PEG2′-PEG2′-γGlu-γGlu-γGlu-γGlu-Palmitoyl])-NH2

EC50 (nM), OVCAR 5 cells (cAMP): 0.26 nM | EMax, OVCAR 5 cells (cAMP): 89%
B6: peptide of SEQ ID NO: 153 (peptide)
peptide: Ac-LEGREKVRAK(Ac)I[Aib][Aib]EG[Nle]STFS[Aib]RKK(Ac)K([PEG2′-PEG2′-PEG2′-PEG2′-γGlu-γGlu-γGlu-Palmitoyl])-NH2

EC50 (nM), OVCAR 5 cells (cAMP): 0.11 nM | EMax, OVCAR 5 cells (cAMP): 94%
B7: peptide of SEQ ID NO: 148 (peptide)
peptide: Ac-LEGREKVRAK(Ac)I[Aib][Aib]EG[Nle]STWS[Aib][Arg(Me2s)]KK(Ac)K-NH2
modifications: not fully specified (residue 25); printed as Ac-L-E-G-R-E-K-V-R-A-K(Ac)-I-Aib-Aib-E-G-Nle-S-T-W-S-Aib-Rds-K-K(Ac)-K(PEG2-PEG2-PEG2-gE-gE-gE-Stea)-NH2

EC50 (nM), OVCAR 5 cells (cAMP): 0.02 nM | EMax, OVCAR 5 cells (cAMP): 89%
B8: peptide of SEQ ID NO: 157 (peptide)
peptide: Ac-LEGREKVRAK(Ac)I[Aib][Aib]EG[Nle]STFS[αMeK]RAK(Ac)[TTDS(3)][TTDS(3)][γGlu][γGlu][γGlu]K([γGlu-Palmitoyl])-NH2
SMILES: CCCCCCCCCCCCCCCC(=O)N[C@@H](CCC(=O)NCCCC[C@H](NC(=O)CC[C@H](NC(=O)CC[C@H](NC(=O)CC[C@H](NC(=O)CCC(=O)NCCCOCCOCCOCCCNC(=O)CCC(=O)NCCCOCCOCCOCCCNC(=O)[C@H](CCCCNC(C)=O)NC(=O)[C@H](C)NC(=O)[C@H](CCCNC(=N)N)NC(=O)[C@](C)(CCCCN)NC(=O)[C@H](CO)NC(=O)[C@H](Cc1ccccc1)NC(=O)[C@@H](NC(=O)[C@H](CO)NC(=O)[C@H](CCCC)NC(=O)CNC(=O)[C@H](CCC(=O)O)NC(=O)C(C)(C)NC(=O)C(C)(C)NC(=O)[C@@H](NC(=O)[C@H](CCCCNC(C)=O)NC(=O)[C@H](C)NC(=O)[C@H](CCCNC(=N)N)NC(=O)[C@@H](NC(=O)[C@H](CCCCN)NC(=O)[C@H](CCC(=O)O)NC(=O)[C@H](CCCNC(=N)N)NC(=O)CNC(=O)[C@H](CCC(=O)O)NC(=O)[C@H](CC(C)C)NC(C)=O)C(C)C)[C@@H](C)CC)[C@@H](C)O)C(=O)O)C(=O)O)C(=O)O)C(N)=O)C(=O)O

EC50 (nM), OVCAR 5 cells (cAMP): 0.04 nM | EMax, OVCAR 5 cells (cAMP): 91%
B9: peptide of SEQ ID NO: 152 (peptide)
peptide: Ac-LEGREKVRAK(Ac)I[Aib][Aib]EG[Nle]ST[αMeF]S[αMeK]RAK(Ac)[PEG2″][PEG2″][PEG2″][PEG2″][γGlu][γGlu][γGlu]K([γGlu-Palmitoyl])-NH2

EC50 (nM), OVCAR 5 cells (cAMP): 0.07 nM | EMax, OVCAR 5 cells (cAMP): 92%
B10: peptide of SEQ ID NO: 150 (peptide)
peptide: Ac-LEGREKVRAK(Ac)I[Aib][Aib]EG[Nle]STFS[αMeK]RAK(Ac)[PEG2″][PEG2″][PEG2″][PEG2″]K([γGlu-γGlu-γGlu-γGlu-Palmitoyl])-NH2

EC50 (nM), OVCAR 5 cells (cAMP): 12.1 nM | EMax, OVCAR 5 cells (cAMP): 94%
B11: peptide of SEQ ID NO: 161 (peptide)
peptide: Ac-LEGREKVRAK(Ac)I[Aib][Aib]EGQSTFS[αMeK]RAK(Ac)[PEG2′][PEG2′][PEG2′][PEG2′]K([γGlu-γGlu-γGlu-γGlu-Lauroyl])-NH2

EC50 (nM), OVCAR 5 cells (cAMP): 1.17 nM | EMax, OVCAR 5 cells (cAMP): 95%
B12: peptide of SEQ ID NO: 155 (peptide)
peptide: Ac-LEGREKVRAK(Ac)I[Aib][Aib]EG[Nle]STWS[Aib]AAK(Ac)K([PEG2′-PEG2′-PEG2′-γGlu-γGlu-γGlu-Stearoyl])-NH2

EC50 (nM), OVCAR 5 cells (cAMP): 0.14 nM | EMax, OVCAR 5 cells (cAMP): 90%
B13: peptide of SEQ ID NO: 151 (peptide)
peptide: Ac-LEGREKVRAK(Ac)I[Aib][Aib]EG[Nle]STFS[αMeK][Arg(Me)]AK(Ac)[PEG2″][PEG2″][PEG2″][PEG2″][γGlu][γGlu][γGlu]K([γGlu-Palmitoyl])-NH2

EC50 (nM), OVCAR 5 cells (cAMP): 0.28 nM | EMax, OVCAR 5 cells (cAMP): 86%
B14: peptide of SEQ ID NO: 160 (peptide)
peptide: Ac-LEGREKVRAK(Ac)I[Aib][Aib]EG[Nle]STFSXRAK(Ac)[PEG2′][PEG2′][PEG2′][PEG2′][γGlu][γGlu]K([γGlu-γGlu-Palmitoyl])-NH2
modifications: not fully specified (some residues); printed as Ac-L-E-G-R-E-K-V-R-A-K(Ac)-I-Aib-Aib-E-G-Nle-S-T-F-S-Mly-R-A-K(Ac)-PEG2-PEG2-PEG2-PEG2-gE-gE-K(gE-gE-Palm)-NH2

EC50 (nM), OVCAR 5 cells (cAMP): 0.02 nM | EMax, OVCAR 5 cells (cAMP): 88%
B15: peptide of SEQ ID NO: 159 (peptide)
peptide: Ac-LEGREKVRAK(Ac)I[Aib][Aib]EG[Nle]STFS[αMeK]RKK(Ac)[PEG2″][PEG2″][PEG2″][PEG2″][γGlu][γGlu]K([γGlu-γGlu-Palmitoyl])-NH2

EC50 (nM), OVCAR 5 cells (cAMP): 0.14 nM | EMax, OVCAR 5 cells (cAMP): 90%
B16: peptide of SEQ ID NO: 158 (peptide)
peptide: Ac-LEGREKVRAK(Ac)I[Aib][Aib]EG[Nle]ST[Trp(5-OH)]S[Aib]RKK(Ac)K([PEG2′-PEG2′-PEG2′-γGlu-γGlu-γGlu-Stearoyl])-NH2

EC50 (nM), OVCAR 5 cells (cAMP): 24 nM | EMax, OVCAR 5 cells (cAMP): 100%
B17: peptide of SEQ ID NO: 2 (peptide)
peptide: Ac-LEGREKVRAQI[Aib][Aib]EG[Nle]STWS[Aib]RKK([γGlu-Palmitoyl])-NH2
SMILES: CCCCCCCCCCCCCCCC(=O)N[C@@H](CCC(=O)NCCCC[C@H](NC(=O)[C@H](CCCCN)NC(=O)[C@H](CCCNC(=N)N)NC(=O)C(C)(C)NC(=O)[C@H](CO)NC(=O)[C@H](Cc1c[nH]c2ccccc12)NC(=O)[C@@H](NC(=O)[C@H](CO)NC(=O)[C@H](CCCC)NC(=O)CNC(=O)[C@H](CCC(=O)O)NC(=O)C(C)(C)NC(=O)C(C)(C)NC(=O)[C@@H](NC(=O)[C@H](CCC(N)=O)NC(=O)[C@H](C)NC(=O)[C@H](CCCNC(=N)N)NC(=O)[C@@H](NC(=O)[C@H](CCCCN)NC(=O)[C@H](CCC(=O)O)NC(=O)[C@H](CCCNC(=N)N)NC(=O)CNC(=O)[C@H](CCC(=O)O)NC(=O)[C@H](CC(C)C)NC(C)=O)C(C)C)[C@@H](C)CC)[C@@H](C)O)C(N)=O)C(=O)O

EC50 (nM), OVCAR 5 cells (cAMP): 0.11 nM | EMax, OVCAR 5 cells (cAMP): 87%
B18: peptide of SEQ ID NO: 149 (peptide)
peptide: Ac-LEGREKVRAK(Ac)I[Aib][Aib]EG[Nle]STFS[αMeK]RAK(Ac)[PEG2″][PEG2″][PEG2″][PEG2″][γGlu][γGlu][γGlu]K([γGlu-Palmitoyl])-NH2
